Data on 4 molecules can be found in publication PMC7440162 (Cell, 2020).

Holding throughout (experiment): SPR
One assay deals with T1, human ISLR2 ECD-Fc (human, UniProt Q6UXK2 19-589, biotin on the AviTag (as SPR ligand)).
T1 sequence: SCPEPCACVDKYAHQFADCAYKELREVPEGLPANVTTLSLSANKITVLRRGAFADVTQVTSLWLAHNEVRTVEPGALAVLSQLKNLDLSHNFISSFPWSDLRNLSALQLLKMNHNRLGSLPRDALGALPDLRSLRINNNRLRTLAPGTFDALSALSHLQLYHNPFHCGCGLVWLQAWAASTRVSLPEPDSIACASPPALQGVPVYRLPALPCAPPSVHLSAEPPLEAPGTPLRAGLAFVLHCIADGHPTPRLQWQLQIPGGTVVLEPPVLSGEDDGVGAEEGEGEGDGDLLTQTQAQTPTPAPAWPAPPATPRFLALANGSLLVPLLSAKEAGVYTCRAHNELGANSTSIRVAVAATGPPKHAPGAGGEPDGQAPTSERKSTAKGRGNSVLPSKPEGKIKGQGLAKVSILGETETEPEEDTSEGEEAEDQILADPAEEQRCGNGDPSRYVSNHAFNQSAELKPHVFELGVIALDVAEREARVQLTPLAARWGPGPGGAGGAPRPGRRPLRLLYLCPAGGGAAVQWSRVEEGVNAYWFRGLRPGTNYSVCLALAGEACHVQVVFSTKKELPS

The target in a further assay is T2, PRTG ECD-Fc (human, UniProt Q2VWP7 36-949).
T2 sequence: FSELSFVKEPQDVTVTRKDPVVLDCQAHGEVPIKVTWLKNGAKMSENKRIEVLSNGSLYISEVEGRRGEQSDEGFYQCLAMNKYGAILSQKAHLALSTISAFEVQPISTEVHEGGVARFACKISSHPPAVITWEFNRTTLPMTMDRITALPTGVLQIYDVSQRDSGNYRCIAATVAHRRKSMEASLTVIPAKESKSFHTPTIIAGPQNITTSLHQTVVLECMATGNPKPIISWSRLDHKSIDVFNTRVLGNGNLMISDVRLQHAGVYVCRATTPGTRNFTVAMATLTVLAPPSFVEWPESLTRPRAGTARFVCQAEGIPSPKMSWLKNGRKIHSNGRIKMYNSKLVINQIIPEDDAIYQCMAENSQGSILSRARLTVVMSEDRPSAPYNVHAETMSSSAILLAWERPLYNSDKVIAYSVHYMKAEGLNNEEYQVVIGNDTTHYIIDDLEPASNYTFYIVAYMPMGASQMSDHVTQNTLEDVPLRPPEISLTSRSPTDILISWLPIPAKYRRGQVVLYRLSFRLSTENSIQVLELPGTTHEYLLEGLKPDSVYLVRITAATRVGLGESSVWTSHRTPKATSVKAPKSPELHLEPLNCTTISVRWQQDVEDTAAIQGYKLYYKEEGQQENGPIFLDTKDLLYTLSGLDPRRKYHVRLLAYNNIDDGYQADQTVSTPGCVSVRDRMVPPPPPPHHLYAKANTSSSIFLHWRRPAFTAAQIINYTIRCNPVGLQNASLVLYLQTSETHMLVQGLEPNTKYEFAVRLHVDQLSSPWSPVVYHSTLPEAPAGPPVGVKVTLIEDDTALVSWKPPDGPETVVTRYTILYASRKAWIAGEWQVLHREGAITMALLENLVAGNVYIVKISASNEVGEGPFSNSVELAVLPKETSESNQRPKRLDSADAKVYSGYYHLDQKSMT

The next assay has as its target T3, IL-6Rα ECD-Fc (human, UniProt P08887 20-365, biotin on the AviTag (as SPR ligand)).
T3 sequence: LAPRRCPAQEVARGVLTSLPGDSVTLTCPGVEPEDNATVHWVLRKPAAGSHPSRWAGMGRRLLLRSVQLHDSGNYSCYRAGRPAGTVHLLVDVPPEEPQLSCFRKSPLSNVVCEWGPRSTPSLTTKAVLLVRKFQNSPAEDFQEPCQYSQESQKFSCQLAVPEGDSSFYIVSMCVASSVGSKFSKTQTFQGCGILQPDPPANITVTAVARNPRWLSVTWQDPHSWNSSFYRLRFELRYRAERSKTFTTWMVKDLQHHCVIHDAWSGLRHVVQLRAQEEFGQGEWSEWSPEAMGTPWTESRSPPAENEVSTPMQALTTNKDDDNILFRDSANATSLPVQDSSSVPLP

In the next assay the target is T4, TIE1 ECD-Fc (human, UniProt P35590 22-759, biotin on the AviTag (as SPR ligand)).
T4 sequence: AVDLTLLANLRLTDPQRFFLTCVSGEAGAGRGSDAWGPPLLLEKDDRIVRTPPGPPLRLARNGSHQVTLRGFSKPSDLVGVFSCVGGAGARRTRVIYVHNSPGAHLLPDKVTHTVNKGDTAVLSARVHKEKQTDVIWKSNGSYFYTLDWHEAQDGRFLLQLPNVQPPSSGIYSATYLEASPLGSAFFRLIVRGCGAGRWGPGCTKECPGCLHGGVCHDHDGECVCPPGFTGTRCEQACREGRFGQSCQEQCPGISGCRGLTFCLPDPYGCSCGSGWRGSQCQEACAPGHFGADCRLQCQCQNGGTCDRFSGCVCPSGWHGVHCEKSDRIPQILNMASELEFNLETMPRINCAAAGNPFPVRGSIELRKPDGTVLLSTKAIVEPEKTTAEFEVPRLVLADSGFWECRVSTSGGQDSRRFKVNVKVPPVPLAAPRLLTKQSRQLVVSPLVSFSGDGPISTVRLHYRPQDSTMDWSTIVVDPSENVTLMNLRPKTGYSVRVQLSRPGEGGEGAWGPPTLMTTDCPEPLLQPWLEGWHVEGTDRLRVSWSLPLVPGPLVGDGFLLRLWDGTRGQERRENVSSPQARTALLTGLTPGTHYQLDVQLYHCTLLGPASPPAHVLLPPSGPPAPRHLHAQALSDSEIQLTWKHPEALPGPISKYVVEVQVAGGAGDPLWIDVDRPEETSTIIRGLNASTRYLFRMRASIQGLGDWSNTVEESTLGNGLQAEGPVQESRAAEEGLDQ

The target of the next assay is TIE2 ECD-Fc (human, UniProt Q02763 23-748, biotin on the AviTag (as SPR ligand)).
TIE2 ECD-Fc, sequence (Q02763 23-748): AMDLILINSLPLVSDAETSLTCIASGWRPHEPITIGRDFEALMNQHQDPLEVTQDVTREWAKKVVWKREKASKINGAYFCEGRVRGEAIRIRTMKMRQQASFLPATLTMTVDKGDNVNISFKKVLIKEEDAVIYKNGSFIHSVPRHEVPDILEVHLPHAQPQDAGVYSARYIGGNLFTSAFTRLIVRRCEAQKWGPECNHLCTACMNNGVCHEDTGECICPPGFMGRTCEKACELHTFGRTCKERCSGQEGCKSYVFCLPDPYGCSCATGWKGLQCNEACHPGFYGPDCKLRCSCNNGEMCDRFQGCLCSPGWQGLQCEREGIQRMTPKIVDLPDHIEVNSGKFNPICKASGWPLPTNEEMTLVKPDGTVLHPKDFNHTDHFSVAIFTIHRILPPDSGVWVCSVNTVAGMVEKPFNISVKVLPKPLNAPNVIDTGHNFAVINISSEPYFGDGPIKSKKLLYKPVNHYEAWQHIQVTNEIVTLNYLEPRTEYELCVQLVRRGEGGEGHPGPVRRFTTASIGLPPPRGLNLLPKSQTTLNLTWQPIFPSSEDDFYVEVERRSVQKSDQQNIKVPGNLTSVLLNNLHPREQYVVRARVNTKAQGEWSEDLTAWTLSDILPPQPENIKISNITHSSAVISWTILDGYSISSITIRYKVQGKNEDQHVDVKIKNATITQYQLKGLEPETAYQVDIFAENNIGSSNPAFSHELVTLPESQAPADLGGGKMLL

B1: IGFBP7-Fc (Fc fusion)
chain: SSSDTCGPCEPASCPPLPPLGCLLGETRDACGCCPMCARGEGEPCGGGGAGRGYCAPGMECVKSRKRRKGKAGAAAGGPGVSGVCVCKSRYPVCGSDGTTYPSGCQLRAASQRAESRGEKAITQVSKGTCEQGPSIVTPPKDIWNVTGAQVYLSCEVIGIPTPVLIWNKVKRGHYGVQRTELLPGDRDNLAIQTRGGPEKHEVTGWVLVSPLSKEDAGEYECHASNSQGQASASAKITVVDALHEIPVKKGEGAEL
modifications: biotin on the AviTag (as SPR ligand)
In the case of B1, the binding result in the assay with human ISLR2 ECD-Fc, with PRTG ECD-Fc and with IL-6Rα ECD-Fc was “binds” in each case.

B2: IGFBPL1-Fc (Fc fusion)
chain: LGIRDVGGRRPKCGPCRPEGCPAPAPCPAPGISALDECGCCARCLGAEGASCGGRAGGRCGPGLVCASQAAGAAPEGTGLCVCAQRGTVCGSDGRSYPSVCALRLRARHTPRAHPGHLHKARDGPCEFAPVVVVPPRSVHNVTGAQVGLSCEVRAVPTPVITWRKVTKSPEGTQALEELPGDHVNIAVQVRGGPSDHEATAWILINPLRKEDEGVYQCHAANMVGEAESHSTVTVLDLSKYRSFHFPAPDDRM
modifications: biotin on the AviTag (as SPR ligand)
For B2, the binding result with human ISLR2 ECD-Fc, in the assay with PRTG ECD-Fc and in the assay with IL-6Rα ECD-Fc was “binds” throughout.

B3: TrkA ECD-Fc (Fc fusion)
chain: AAPCPDACCPHGSSGLRCTRDGALDSLHHLPGAENLTELYIENQQHLQHLELRDLRGLGELRNLTIVKSGLRFVAPDAFHFTPRLSRLNLSFNALESLSWKTVQGLSLQELVLSGNPLHCSCALRWLQRWEEEGLGGVPEQKLQCHGQGPLAHMPNASCGVPTLKVQVPNASVDVGDDVLLRCQVEGRGLEQAGWILTELEQSATVMKSGGLPSLGLTLANVTSDLNRKNVTCWAENDVGRAEVSVQVNVSFPASVQLHTAVEMHHWCIPFSVDGQPAPSLRWLFNGSVLNETSFIFTEFLEPAANETVRHGCLRLNQPTHVNNGNYTLLAANPFGQASASIMAAFMDNPFEFNPEDPIPVSFSPVDTNSTSGDPVEKKDETPFGVSVAVG
modifications: biotin on the AviTag (in streptavidin-Alexa 647 tetramers)
Consider B3, for which the binding result with TIE1 ECD-Fc is reported as “binds”.

B4: Recombinant Human Angiopoietin-1 Protein (ligand)
chain: HIGCSNQRRSPENSGRRYNRIQHGQCAYTFILPEHDGNCRESTTDQYNTNALQRDAPHVEPDFSSQKLQHLEHVMENYTQWLQKLENYIVENMKSEMAQIQQNAVQNHTATMLEIGTSLLSQTAEQTRKLTDVETQVLNQTSRLEIQLLENSLSTYKLEKQLLQQTNEILKIHEKNSLLEHKILEMEGKHKEELDTLKEEKENLQGLVTRQTYIIQELEKQLNRATTNNSVLQKQQLELMDTVHNLVNLCTKEGVLLKGGKREEEKPFRDCADVYQAGFNKSGIYTIYINNMPEPKKVFCNMDVNGGGWTVIQHREDGSLDFQRGWKEYKMGFGNPSGEYWLGNEFIFAITSQRQYMLRIELMDWEGNRAYSQYDRFHIGNEKQNYRLYLKGHTGTAGKQSSLILHGADFSTKDADNDNCMCKCALMLTGGWWFDACGPSNLNGMFYTAGQNHGKLNGIKWHYFKGPSYSLRSTTMMIRPLDF
As to B4, the binding result with TIE2 ECD-Fc is reported as “binds”.
